Assay results as given in patent US20170314054A1 (ROCHE SEQUENCING SOLUTIONS, published 2017).
No end group written: not given here.

Columns and labels:
[1] = target: T1, Z-GGGARSKLGGGG (SEQ ID NO: 80)
T1 chain: GGGARSKLGGGG

[2] = target: T2, Z-GGGDEKPDGGGG (SEQ ID NO: 81)
T2 chain: GGGDEKPDGGGG

[3] = target: T3, Z-GGGDYALQGGGG (SEQ ID NO: 86)
T3 chain: GGGDYALQGGGG

[4] = target: T4, microbial transglutaminase from Streptomyces mobaraensis (MTG) (Streptomyces mobaraensis, UniProt P81453 77-407); assay: cell-based or functional assay
T4 sequence (looked up): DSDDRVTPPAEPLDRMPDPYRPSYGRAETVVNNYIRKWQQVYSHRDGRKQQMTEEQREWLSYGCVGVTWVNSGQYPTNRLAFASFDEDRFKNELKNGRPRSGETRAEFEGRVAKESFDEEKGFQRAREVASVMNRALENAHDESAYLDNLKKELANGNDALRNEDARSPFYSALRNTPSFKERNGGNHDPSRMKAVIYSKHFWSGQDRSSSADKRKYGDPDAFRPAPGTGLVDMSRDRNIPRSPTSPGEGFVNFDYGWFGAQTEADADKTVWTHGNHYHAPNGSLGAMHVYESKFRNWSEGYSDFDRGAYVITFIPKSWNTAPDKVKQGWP

Binder | KM (GLDH-coupled MTG activity assay, 100 µM Z-GGGDYALQGGGG as amine acceptor) [1] | Vmax (GLDH-coupled MTG activity assay, 100 µM Z-GGGDYALQGGGG as amine acceptor) [1] | difference in MTG catalytic efficiency against GGGDEKPDGGGG (SEQ ID NO: 81) [1] | kcat (GLDH-coupled MTG activity assay, 100 µM Z-GGGDYALQGGGG as amine acceptor) [1] | kcat/KM (GLDH-coupled MTG activity assay, 100 µM Z-GGGDYALQGGGG as amine acceptor) [1] | stated: almost no MTG turnover (rate of NADH oxidation, GLDH-coupled assay, 100 uM Z-GGGDYALQGGGG as amine acceptor) [2] | KM (GLDH-coupled MTG activity assay) [3] | Vmax (GLDH-coupled MTG activity assay) [3] | difference in MTG catalytic efficiency against standard QG-substrate [3] | kcat (GLDH-coupled MTG activity assay) [3] | kcat/KM (GLDH-coupled MTG activity assay) [3] | A (array MTG labeling signal with Z-Gln-Gly-CAD-biotin) [4]
microbial transglutaminase from Streptomyces mobaraensis (MTG) (protein) DSDDRVTPPAEPLDRMPDPYRPSYGRAETVVNNYIRKWQQVYSHRDGRKQQMTEEQREWLSYGCVGVTWVNSGQYPTNRLAFASFDEDRFKNELKNGRPRSGETRAEFEGRVAKESFDEEKGFQRAREVASVMNRALENAHDESAYLDNLKKELANGNDALRNEDARSPFYSALRNTPSFKERNGGNHDPSRMKAVIYSKHFWSGQDRSSSADKRKYGDPDAFRPAPGTGLVDMSRDRNIPRSPTSPGEGFVNFDYGWFGAQTEADADKTVWTHGNHYHAPNGSLGAMHVYESKFRNWSEGYSDFDRGAYVITFIPKSWNTAPDKVKQGWP | 66.8 µM | 5.1 pmol/s | an apparent difference in MTG catalytic efficiency of at least 10-fold was observed | 0.066 s⁻¹ | 990 M⁻¹ s⁻¹ | filled circles: rate stays at about 0 pmol/s from 0 to 200 uM and reaches only about 0.2 pmol/s at 500 uM | 970 µM | 0.46 nmol/s | a difference in MTG catalytic efficiency of at least 3-fold | 6 s⁻¹ | 6200 M⁻¹ s⁻¹ | –
GYKLK (also: flanked by G:S (3:1) linkers on peptide array) [GYKLK (SEQ ID NO: 78)] | – | – | – | – | – | – | – | – | – | – | – | 13.3
QRTKL (also: flanked by G:S (3:1) linkers on peptide array) [QRTKL (SEQ ID NO: 77)] | – | – | – | – | – | – | – | – | – | – | – | 13.3
